Test results taken from paper PMC2911679.
Where two headings read alike, the source gives them in different places.

Key:
Experiment in all cases: AlphaScreen or HTRF
[1] = target: His6-tagged GFP–SRY-HMG R76P (SRY residues 55–141) (human) (UniProt Q05066)
[2] = target: His6-tagged GFP–SRY-HMG M64T (SRY residues 55–141) (human) (UniProt Q05066)
[3] = target: His6-tagged GFP–SRY-HMG F67V (SRY residues 55–141) (human) (UniProt Q05066)
[4] = target: His6-tagged GFP–SRY-HMG R76P (SRY residues 55–141) (human) (UniProt Q05066); remark: listed apart in the source

Kd [1]: 2.05 nM
Kd [2]: 2.05 nM
Kd [3]: 1.25 nM
Kd [4]: 1.18 nM
Substance: biotin-labelled calmodulin (CaM) (from UniProt P0DP23 1-149) (natural protein)
